B1: Azoarcus group I ribozyme (parent)
chain: GUGCCUUGCGCCGGGAAACCACGCAAGGGAUGGUGUCAAAUUCGGCGAAACCUAAGCGCCCGCCCGGGCGUAUGGCAACGCCGAGCCAAGCUUCGGCGCCUGCGCCGAUGAAGGUGUAGAGACUAGACGGCACCCACCUAAGGCAAACGCUAUGGUGAAGGCAUAGUCCAGGGAGUGGCGAAAGUCACACAAACCGG

Variants of: B1
Experiment: reverse-splicing fitness (ratio to wild type); higher = more active; in vitro selection; Mg2+ level not given
Summary of the method: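 An in vitro group I ribozyme library with randomized positions was T7-transcribed and gel-purified. In triplicate, 10 pmol RNA in EPPS pH 7.5 was reacted with 50 pmoles of a 30-nt RNA substrate for 1 h at 37 °C across several added MgCl2 levels (1–48 mM), then stopped with EDTA. Products were reverse transcribed from a substrate-complementary primer, PCR-amplified and sequenced (HiSeq 4000). Fitness is a variant's read proportion after selection over that before, normalised to wild type.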

Point of comparison: GUGCCUUGCGCCGGGAAACCACGCAAGGGAUGGUGUCAAAUUCGGCGAAACCUAAGCGCCCGCCCGGGCGUAUGGCAACGCAGAGCCAAGCUUCGGCGCCUGCGCCGAUGUAGGUGUAGUGACUAGACGGCACCCACCUAAGGCCAACGGUAUGGUGAAGGCAUAGUCCAGGGAGUGGCGAAAGUCACACAAACCGG [C82A A111U A120U A145C C150G], reverse-splicing fitness 0.0059. Against it:
- GUGCCUUGCGCCGGGAAACCACGCAAGGGAUGGUGUCAAAUUCGGCGAAACCUAAGCGCCCGCCCGGGCGUAUGGCAACGCAGAGCCAAGCUUCGGCGCCUGCGCCGAUGUAGGUGUAGUGACUAGACGGCACCCACCUAAGGCCAACGGUAUGGUGAAGGCAUAGUCUAGGGAGUGGCGAAAGUCACACAAACCGG [C82A A111U A120U A145C C150G C169U] — lower, 0.00392
- GUGCCUUGCGCCGGGAAACCACGCAAGGGAUGGUGUCAAAUUCGGCGAAACCUAAGCGCCCGCCCGGGCGUAUGGCAACGCAGAGCCAAGCUUCGGCGCCUGCGCCGAUGUAGGUGUAGUGACUAGACGGCACCCACCUAAGGCCAACGGUAUGGUGAAGGCAUAGUCGAGGGAGUGGCGAAAGUCACACAAACCGG [C82A A111U A120U A145C C150G C169G] — lower, 0.0039
- GUGCCUUGCGCCGGGAAACCACGCAAGGGAUGGUGUCAAAUUCGGCGAAACCUAAGCGCCCGCCCGGGCGUAUGGCAACGCAGAGCCAAGCUUCGGCGCCUGCGCCGAUGUAGGUGUAGUGACUAGACGGCACCCACCUAAGGCCAACGGUAUGGUGAAGGCAUAGUCAAGGGAGUGGCGAAAGUCACACAAACCGG [C82A A111U A120U A145C C150G C169A] — lower, 0.00347
- GUGCCUUGCGCCGGGAAACCACGCAAGGGAUGGUGUCAAAUUCGGCGAAACCUAAGCGCCCGCCCGGGCGUAUGGCAACGCAGAGCCAAGCUUCGGCGCCUGCGCCGAUGUAGGUGUAGUGACUAGACGGCACCCACCUAAGGCCAACGGUAUGGUGAAGGCAUAGUCGAGGGAGAGGCGAAAGUCACACAAACCGG [C82A A111U A120U A145C C150G C169G U176A] — lower, 0.00351
- GUGCCUUGCGCCGGGAAACCACGCAAGGGAUGGUGUCAAAUUCGGCGAAACCUAAGCGCCCGCCCGGGCGUAUGGCAACGCAGAGCCAAGCUUCGGCGCCUGCGCCGAUGUAGGUGUAGUGACUAGACGGCACCCACCUAAGGCCAACGGUAUGGUGAAGGCAUAGUCGAGGGAGGGGCGAAAGUCACACAAACCGG [C82A A111U A120U A145C C150G C169G U176G] — lower, 0.00242
- GUGCCUUGCGCCGGGAAACCACGCAAGGGAUGGUGUCAAAUUCGGCGAAACCUAAGCGCCCGCCCGGGCGUAUGGCAACGCAGAGCCAAGCUUCGGCGCCUGCGCCGAUGUAGGUGUAGUGACUAGACGGCACCCACCUAAGGCCAACGGUAUGGUGAAGGCAUAGUCGAGGGAGCGGCGAAAGUCACACAAACCGG [C82A A111U A120U A145C C150G C169G U176C] — lower, 0.0024
- GUGCCUUGCGCCGGGAAACCACGCAAGGGAUGGUGUCAAAUUCGGCGAAACCUAAGCGCCCGCCCGGGCGUAUGGCAACGCAGAGCCAAGCUUCGGCGCCUGCGCCGAUGUAGGUGUAGUGACUAGACGGCACCCACCUAAGGCCAACGGUAUGGUGAAGGCAUAGUCCAGGGAGCGGCGAAAGUCACACAAACCGG [C82A A111U A120U A145C C150G U176C] — lower, 0.00415
- GUGCCUUGCGCCGGGAAACCACGCAAGGGAUGGUGUCAAAUUCGGCGAAACCUAAGCGCCCGCCCGGGCGUAUGGCAACGCAGAGCCAAGCUUCGGCGCCUGCGCCGAUGUAGGUGUAGUGACUAGACGGCACCCACCUAAGGCCAACGGUAUGGUGAAGGCAUAGUCCAGGGAGAGGCGAAAGUCACACAAACCGG [C82A A111U A120U A145C C150G U176A] — lower, 0.00326
- GUGCCUUGCGCCGGGAAACCACGCAAGGGAUGGUGUCAAAUUCGGCGAAACCUAAGCGCCCGCCCGGGCGUAUGGCAACGCAGAGCCAAGCUUCGGCGCCUGCGCCGAUGUAGGUGUAGUGACUAGACGGCACCCACCUAAGGCCAACGGUAUGGUGAAGGCAUAGUCUAGGGAGAGGCGAAAGUCACACAAACCGG [C82A A111U A120U A145C C150G C169U U176A] — lower, 0.00314
- GUGCCUUGCGCCGGGAAACCACGCAAGGGAUGGUGUCAAAUUCGGCGAAACCUAAGCGCCCGCCCGGGCGUAUGGCAACGCAGAGCCAAGCUUCGGCGCCUGCGCCGAUGUAGGUGUAGUGACUAGACGGCACCCACCUAAGGCCAACGGUAUGGUGAAGGCAUAGUCUAGGGAGGGGCGAAAGUCACACAAACCGG [C82A A111U A120U A145C C150G C169U U176G] — lower, 0.00301
- GUGCCUUGCGCCGGGAAACCACGCAAGGGAUGGUGUCAAAUUCGGCGAAACCUAAGCGCCCGCCCGGGCGUAUGGCAACGCAGAGCCAAGCUUCGGCGCCUGCGCCGAUGUAGGUGUAGUGACUAGACGGCACCCACCUAAGGCCAACGGUAUGGUGAAGGCAUAGUCUAGGGAGCGGCGAAAGUCACACAAACCGG [C82A A111U A120U A145C C150G C169U U176C] — lower, 0.00285
- GUGCCUUGCGCCGGGAAACCACGCAAGGGAUGGUGUCAAAUUCGGCGAAACCUAAGCGCCCGCCCGGGCGUAUGGCAACGCAGAGCCAAGCUUCGGCGCCUGCGCCGAUGUAGGUGUAGUGACUAGACGGCACCCACCUAAGGCCAACGGUAUGGUGAAGGCAUAGUCAAGGGAGAGGCGAAAGUCACACAAACCGG [C82A A111U A120U A145C C150G C169A U176A] — lower, 0.00316
- GUGCCUUGCGCCGGGAAACCACGCAAGGGAUGGUGUCAAAUUCGGCGAAACCUAAGCGCCCGCCCGGGCGUAUGGCAACGCAGAGCCAAGCUUCGGCGCCUGCGCCGAUGUAGGUGUAGUGACUAGACGGCACCCACCUAAGGCCAACGGUAUGGUGAAGGCAUAGUCAAGGGAGGGGCGAAAGUCACACAAACCGG [C82A A111U A120U A145C C150G C169A U176G] — lower, 0.00234
- GUGCCUUGCGCCGGGAAACCACGCAAGGGAUGGUGUCAAAUUCGGCGAAACCUAAGCGCCCGCCCGGGCGUAUGGCAACGCAGAGCCAAGCUUCGGCGCCUGCGCCGAUGUAGGUGUAGUGACUAGACGGCACCCACCUAAGGCCAACGGUAUGGUGAAGGCAUAGUCAAGGGAGCGGCGAAAGUCACACAAACCGG [C82A A111U A120U A145C C150G C169A U176C] — lower, 0.00302
